experiment: soluble on expression in E. coli; label from the status in PepcDB or PDB records

Sequence | soluble on expression in E. coli
EKKPYIISNVGMTLDGKLATINNDSRISCEEDLIRVHKIRANVDGIMVGIGTVLKDDPRLTVHKIKSDRNPVRIVVDSKLRVPLNARVLNKDAKTIIATTEDTNEEKEKKIKILEDMGVEVVKCGRGKVDLKKLMDILYDKGIKSILLEGGGTLNWGMFKEGLVDEVSVYIAPKIFGGKEAPTYVDGEGFKTVDECVKLELKNFYRLGEGIVLEFKVKK | soluble
MYEIPWSKPVNINMLDGRCRTVVGPLDAMHCLQSEWPVRDGAYYGCAIRACNAALKRRKRPEDARAAFIAALREAFLTVVPMQEEGHGPRPLE | not soluble
MSCVQQQRRSTGLRIAERLNKYITLPNRHSFTVDSKDVFQRGQVLSYIRSKAPFLLEHISEAKERLITVTSRGLMIIYENDDHGLVIDLRSARNVLCTADRSKKQRHFRCHIKIRMQRGNVHLFVGHNDVHKWTCAIMRAAGKCLPSTEPRDDGSLNVAMMTAVEDSGIFEEMSSTSSASYDYDEDDEVDEVKPTAIEQIPLPHVSVRSLRQKLEKELVLKPKEQVLAEQQHKANCDEPSFVSEIFCTPRAVFSDETVVLLEPTNARERREYEAQADRENQWWTRSLRC | not soluble
MDNKVILVGGFHEIIELCEDNDIEIAGIIDNYLTNDTYWGYPIIGTDDKAKVLFETYKNVPVLITPDVPHVRYKLYHYYKSIGFQVASLISRDASISRSAIIGEGTIIQRGANLSSNIKIGQMVKVNTNANIMHDCLIGNYVTVAPNAVLLGKVEIDDKAYIGANATLLPSVKIGENVTVGAGSVVTKSVRPNTVVKGSPLEHHHHHH | soluble
MGSDKIHHHHHHMQVTEQMKLDLARDGAFVARGLFSPEGLKRMREAFDYGIEHPSPQHGYIFKGTPDEHFNDYGNIANRDVHIATIKALVLDEFVASLWDSQHVWFKGEEIFIKKGGKAGRSPWHQDNSYTPVSGPQMLNIWTCFERIPRKNALEVVRGSHLGIQYNGNSYTDPGKPTKPLWLNTDWPDLPDIEAERAKDPNSWDVLSWDLELGDALVFHSGALHGGAPVSADCPDRHTLVYRFFGDKLFYRPLPTGGCNYPYDISALNDPSLMPGEPFRAAWCTQLR | not soluble
MSLNVMYKNSCPNCGGDISGDRLLNGLPCEACLPYINGIDDVDHISKVKTLYNILLNNDKIKNYWNLYYNITTFETVFKYFRDKTGYEPWSLQKLWLRRLASNQSFTMSAPTGLGKTTTLMTYSVFIGQDVVYIVPTKSLMEQVCKRLEKLGAQVSCGKIDQKKVSVITISYLNKNADSIVSLKPNFVVIDDADAVIKSGKTTDRLVSLLGIPKDVYESAIQLIRLRNKYYFSNEYTEEVKEKIRELELKIAEFKDKISQLVIASATIRPKGIKQKALRLLTGFEPSSIQLYARNIIDAYTENLDLSIVKELGSGGLILVSKEYGRSKLNEIKKYVEDLGFNAKLAISGRKFLDDFSQGKVDILVGSASYYGVAVRGIDEPKRLKYVIYYGVPKIRAKLFDALSNPFTLLRVGKLIGIDFSKLQNKILILNPSEVQLLKFSIIKGEGHHHHHH | not soluble
MGHHHHHHSHALKAGKTASGAGEVVRCLSEQSVAISRCAGGAGARLPALLDEQQVNVLLYDMNGCYSRLKELVPTLPQNRKVSKVEILQHVIDYIRDLQLELNSESEVGTPGGRGLPVRAPLSTLNGEISALTAEAACVPADDRILCR | not soluble
MSLSELVRKLSGTAPNPAFPRGAVDTQMHMYLPGYPALPGGPGLPPGALPGPEDYRRLMQWLGIDRVIITQGNAHQRDNGNTLACVAEMGEAAHAVVIIDATTTEKDMEKLTAAGTVGARIMDLPGGAVNLSELDAVDERAHAADWMVAVQFDGNGLLDHLPRLQKIRSRWVFDHHGKFFKGIRTDGPEMAALLKLIDRGNLWFKFAGVYESSRKSWPYADVAAFSRVIAAHAPERIVWGTNWPHNSVRETAAYPDDARLAELTLGWLPDEAARHRALVENPEALFKLSPVKEGHHHHHH | soluble
MGSDKIHHHHHHMKIVKISPRGYCYGVVDAMVIARNAALDTSLPRPIYILGMIVHNKHVTDAFEEDGIITLDGPSRLDILDKIDSGTVIFTAHGVSPEVKQRAKEKGLTTIDATCPDVTKTHDLIEAKKAEGYHVIYIGKKNHPEPEGAVGIAPDIVHLIERADDLKTLEIPTDKILVTNQTTMSQWDVQHLMEDIQKKFPTAEFHKEICLATQVRQEAVAKQADVADLTIVVGDPKSNNSNRLAQVSQEIAGTKAYRVADVSEIKLEWLQGVENVAVTAGASTPTPITKEVIAFLEQYDPMNPATWERVRKVPLQKILPRVKVKKEQ | not soluble

Source: the DeepSol protein solubility set
